Values of other authors in paper PMC3369218 (Biochemistry, 2012).

Details: for E′ (Fe^3+/Fe^2+): 25 °C, pH 7

Molecule	reduction potential	E′ (Fe^3+/Fe^2+)
Cld from I. dechloratans: chlorite dismutase from Ideonella dechloratans (protein, UniProt Q9F437 39-285, looked up) Chlorite dismutase: AMNTPVDRAKILSAPGVFVAFSTYKIRPDYFKVALAERKGAADEVMAVLEKHKEKVIVDAYLTRGYEAKSDYFLRVHAYDAVAAQAFLVDFRATRFGMYSDVTESLVGITKALNYISKDKSPDLNKGLSGATYAGDAPRFAFMIPVKKNADWWNLTDEQRLKEMETHTLPTLPFLVNVKRKLYHSTGLDDTDFITYFETNDLGAFNNLMLSLAKVPENKYHVRWGNPTVLGTIQPIENLVKTLSMGN	–21 mV	–0.021 V vs NHE
WT CcP from S. cerevisiae: wild-type cytochrome c peroxidase (protein, UniProt P00431 68-361, looked up) Cytochrome c peroxidase, …: TTPLVHVASVEKGRSYEDFQKVYNAIALKLREDDEYDNYIGYGPVLVRLAWHTSGTWDKHDNTGGSYGGTYRFKKEFNDPSNAGLQNGFKFLEPIHKEFPWISSGDLFSLGGVTAVQEMQGPKIPWRCGRVDTPEDTTPDNGRLPDADKDADYVRTFFQRLNMNDREVVALMGAHALGKTHLKNSGYEGPWGAANNVFTNEFYLNLLNEDWKLEKNDANNEQWDSKSGYMMLPTDYSLIQDPKYLSIVKEYANDQDKFFKDFSKAFEKLLENGITFPKDAPSPFIFKTLEEQGL		–0.189 V vs NHE
CcP(R48K) from S. cerevisiae: cytochrome c peroxidase R48K distal pocket mutant (protein, UniProt P00431 68-361, looked up, variant R48K) Cytochrome c peroxidase, …: TTPLVHVASVEKGRSYEDFQKVYNAIALKLREDDEYDNYIGYGPVLVKLAWHTSGTWDKHDNTGGSYGGTYRFKKEFNDPSNAGLQNGFKFLEPIHKEFPWISSGDLFSLGGVTAVQEMQGPKIPWRCGRVDTPEDTTPDNGRLPDADKDADYVRTFFQRLNMNDREVVALMGAHALGKTHLKNSGYEGPWGAANNVFTNEFYLNLLNEDWKLEKNDANNEQWDSKSGYMMLPTDYSLIQDPKYLSIVKEYANDQDKFFKDFSKAFEKLLENGITFPKDAPSPFIFKTLEEQGL		–0.186 V vs NHE
